Source: the domain aggregation screens of Martell et al. (2025)

Assay: soluble fraction after stress (log2 fold change); higher = more stays soluble; pooled small domains, quantitative proteomics
Conditions: stress: 75 degC
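Further: 20 min heating vs room temperature control held 20 min.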

Sequence | soluble fraction (log2)
HMANTVVMPNLLGKTMTEAKIELKELGIDITLKGSESSSKYSAGQIMEQNIAEGTKVEVGSSVEVTIAGS | -0.579
HMAPAPDEAFAEFVRSSAPSLTRTAWLLTGDRGHAQDLVQNAYAKTLQAWGRLDAEGALAYTRRAVIT | 0.174
HMAPDGIEDKEGWLKVLPMITNLSIQMQNLQARGMDYEHIRNLLHETLLRYDDRIDSNLFIPNV | -0.059
HMAPDNDELEKAKKIVNAFIEAKAKGLGVVSLGTKMIDAPVVKRAQKIIDQTIVMGKLSLNWQDEFFN | -0.208
HMAPEVTVHDGSIVVRGHVGGVTVYDESGRQIASVQSRGAVAIPVPAGHTYLYIVKPEGKPAIKVRAAH | -0.265
HMAPKSALKIIEQISNNPRATMTDLANLTGYSRRWVAQTIKRLQEENIIKRIGSDKSGYWEIIG | -0.807
HMAPLATLEADGNGAVKLPNLAGHAIREVAAALGGANLALIPIGSGTSWKQNPAPGTILHKGDTVTVYF | 0.153
HMAPLEPLTDRETEMLVRLANGASNKVMARESFVSENTIKFHLKNIYAKLGVTSRLQAIAAARNQGLI | -1.31
HMAPLRTQYVNVNYANAAEIKTLISGADKEVGSLLSERGSVVVDKRTNTLIIQDTQARLNDIGDLIEQLD | 0.144
HMAPMYGEFENVRLTDAQLDKLNARFPPEQVQREIEALSGYMRSKGKRYADHYATLLNWLRRDFPP | -0.238
HMAPNVEENSKLIGEIGMTLTPLRPSGIATINNRRVDVVSNGDFIDQDERVMVKRVQGARVVVIPV | 0.168
HMAPPDFTTFMRNYQDMVYSTAVRLIGNETQAEDIAQEVFIKAHAHFENLRTSPSAGGWLKTVATNLSIN | -1.2
HMAPQAETLLRQVMALPSKDRAVLYLHYYEGFSTREVGDMLHISQSAVTTRLLRARKKLKEIL | -0.122
HMAPRLTERERQVLQLIAEGLTSMQIGDRLHIAASTVDVHRRNLMRKLDLHNVADLTRYAITQGISP | -0.792
HMAPRQDIAYYTVKPGDTVLAIAEKFGLQPETLMWSNSIIEQNPDRLSIGDELRILPVDGVLHVVK | 0.129
HMAPRSSAVYFYLSQVALKKNQPRKAEAMARRGLTVSQDANRRRALWQLILRSGQAQNNTRVIREAQQAL | -0.0212
HMAPSLSEYAYEEIKHAIERGVYPPGAKLITQEIADRLGISRTPVVAAVNRLTAEGYADAVPQHGIFVK | -0.073
HMAPVLTRREHEVLHLLTDGLDNRTIARNLFISEATVKFHLHNIMGKFGVHRRAALVSTALRG | -2.22
HMAPVTPEERAQAMEEYKAMVTIEGYTPPKNIIEQNYKRGLWSETMLNMAVTKGAITEAEKLEIMN | 0.463
HMAQIVNLPRKNVNGASYYYYEVQPKETIYSISRKLGVSGAEIQRHNPSVADGLKIGQVLYFPAEG | -0.0642

Sequence | soluble fraction (log2)
HMAQLPADMSKVKSADISEAQLQEFIQKATSSGYNMNQIEMEFAKRGMSENEVSLLRPRLRRLMAS | -0.0413
HMAQLSDDEQAIIDTITRRGDATMSELIASVNVSTPRLMSMLIDMEFRSLITALPGGRYQIRLIN | -1.54
HMAQLTPREREVLVLIAEGKSNKEIADQLNIGVRTIETHRERIMRRLNIHSVAGLTKYAIANGLVTL | -0.36
HMAQPIPSGADIRAAREAAGMTLRRFAEYIAGPDFSTWSRYETGKPIRVKNISPEVWQRVRKFIAQNKG | -0.33
HMAQQEMEIIPLRHRQVEQVMPTLRPLLEPGAALSGMNNQLILRASRKNREEIKQALAVIDT | 0.0427
HMAQSEDLMVMAQRILGGPEAQSFFQAEATRQGLAGFLPEPIPDFLQRLERKLSGSVGSATAHAMVAQTMG | 0.0569
HMAQSLAQKINNYILTNRSSIANVAKSIGYSRTTVSRYLAGKYDSDPTDLENKLAEFLAHETGE | -0.253
HMAQTEIIRVTKDIKKGDAITADKFEKVKVGAYNLPGNVVKNADELKGKFAAADLVRGDYILTSKLTDNP | 0.183
HMAQVRSTVERRENGTYTVELNLNDDVDNVMRLQLMVATKEMAEDLAQRFQKNPEQVYSQLVTALYG | -0.723
HMAQVSDDAELEKWADTAIDEHPKPVEEYRAGNAASINFLMGQVMKMSRGKANPGAVMQILKQKLD | 0.0191
HMAQVSDTGAIAKIVADAIAANPKQVQQYLDGNEKVLMYLVGQVMKLSKGKANPPMVIQLLKEQLG | -0.125
HMAQVSDTGELEGVVDGVLAANAKSVADFQAGKENAFQYLIGQVMKETKGKANPEVVATLLRTKLS | -0.523
HMARAGKLAQDMAVWTKETMLNTERNFISLRHFKRELLRRTLAPGESEQTVRAMEEAGYIQVKDGLVFPIK | -2.43
HMAREQISVSQMVRDVRDGQVKNIEVLGQELRLSYADGSQKVTRKEEGQQALEILFASDIDLAALDLEVQ | -0.0792
HMARIDYHAMDSDDLSFSEGELLEIYDKPGSFWWKGRSLVSGDEGDIPS | -0.0708
HMARKFQKDTGYLNKKERTWLLDFFPSLKKYLYTGAYIRSIIVVESNVTYTDKELPSNYTFTYKFA | -0.522
HMARKISVEALGKYFPNSPMLAAAVAVTGVMKKDEFIHEMRASYKHKFAKKPEVIDGNMKALTMTFEA | 0.11
HMARNHYETLGVGRTATGDEIRKAYRSEAQKHHPDRGGDAERMQSLNEARDTLLDDQARAAYDQELDL | 0.154
HMARPLLSPREQDVLALIARGFSYSEVARLQAVTVHTIRTHIRNLYAKLSVHSKTEAVFEATRMGLLP | -1.94
